# Changes are numbered by the printed parent chain. Names may count otherwise. Where two headings read alike, the source gives them in different places.
# T1: NOD mouse SIRP-α (mouse (NOD strain))
# T1 chain: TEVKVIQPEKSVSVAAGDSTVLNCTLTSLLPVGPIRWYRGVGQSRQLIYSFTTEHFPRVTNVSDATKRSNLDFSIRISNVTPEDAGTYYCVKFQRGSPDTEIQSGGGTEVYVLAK
# T2: BL6 mouse SIRP-α (mouse (C57BL/6 strain), UniProt P97797 32-148)
# T2 construct: also called C57BL/6
# T2 sequence: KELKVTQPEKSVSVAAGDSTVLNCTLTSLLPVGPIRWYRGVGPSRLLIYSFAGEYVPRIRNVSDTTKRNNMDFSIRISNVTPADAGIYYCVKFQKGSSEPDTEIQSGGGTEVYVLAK
# T3: BALBc mouse SIRP-α (mouse (BALB/c strain))
# T3 chain: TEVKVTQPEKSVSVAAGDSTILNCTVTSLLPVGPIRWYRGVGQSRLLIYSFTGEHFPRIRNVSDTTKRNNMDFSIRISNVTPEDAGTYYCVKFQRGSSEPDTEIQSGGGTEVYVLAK
# T4: cynomolgus SIRP-α (cynomolgus monkey, UniProt Q5TFQ8 30-148 (human entry), limits assumed)
# T4 construct: also called cyno1
# T4 chain: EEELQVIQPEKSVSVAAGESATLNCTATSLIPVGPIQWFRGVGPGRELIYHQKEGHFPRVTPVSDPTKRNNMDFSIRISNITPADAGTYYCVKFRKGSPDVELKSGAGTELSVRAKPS
# T5: cynomolgus SIRP-α D1 domain (SEQ ID NO:11) (cynomolgus, UniProt Q5TFQ8 30-148 (human entry), limits assumed)
# T5 construct: also called cyno1
# T5 chain: T4 chain
# T6: cynomolgus SIRP-α D1 domain (SEQ ID NO:12) (cynomolgus, UniProt Q5TFQ8 30-148 (human entry), limits assumed)
# T6 construct: also called cyno2; Cyno2
# T6 chain: T4 chain with E19D, A27V, T28S, V42A, H51N, Q52L, P62A
# T7: BALB/c mouse SIRP-α D1 domain (mouse (BALB/c strain))
# T7 chain: T3 chain
# T8: NOD mouse SIRP-α D1 domain (mouse (NOD strain))
# T8 chain: T1 chain
# T9: C57BL/6 mouse SIRP-α D1 domain (mouse (C57BL/6 strain), UniProt P97797 32-148)
# T9 sequence: T2 sequence
# T10: mouse 129 SIRP-α (mouse (129 strain), UniProt P97797 32-150)
# T10 construct: also called m129
# T10 chain: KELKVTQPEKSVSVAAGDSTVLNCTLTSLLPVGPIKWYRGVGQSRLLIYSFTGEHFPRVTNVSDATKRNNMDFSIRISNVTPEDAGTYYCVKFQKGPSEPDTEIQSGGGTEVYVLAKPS
# B1: Hum1/AB21_HC_Mutall (antibody, V domains shown)
# VH: EVQLVESGGGVVQPGGSLRLSCAASGFTFSSNAMSWVRQAPGKGLEWVAGISAGGSDTYYPASVKGRFTISRDNSKNTLYLQMNSLRAEDTAVYYCARETWNHLFDYWGQGTLVTVSS
# VL: SYELTQPPSVSVSPGQTARITCSGGSYSSYYYAWYQQKPGQAPVTLIYSDDKRPSNIPERFSGSSSGTTVTLTISGVQAEDEADYYCGGYDQSSYTNPFGGGTKLTVL
# notes: also called Hum1/AB21mutall
# B2: Hum9/AB21_HC_Mutall (antibody, V domains shown)
# VH: B1 VH
# VL: B1 VL with S26A, T45L, L46V, N56G
# notes: also called Hum9/AB21mutall
# B3: AB132a (antibody, human IgG1, V domains shown)
# VH: DVQLVESGGGVVRPGESLRLSCAASGFSFRSYAMNWVRQAPGEGLEWVSRINSGGGGTDYADSVKGRFTISRDNSKNTLYLQMNSLRAEDTAVYYCAKQYDWNSFFDYWGLGALVTVSS
# VL: ETVLTQSPATLSVSPGERATLSCRASQTVGSKLAWHQQKPGQAPRLLIYDASNRATGIPDRFSGSGSGTDFTLTISSPQTEDSAVYYCQQYYYWPPYRFGGGTKVEIK
# notes: Full-length human IgG1 with L234A, L235A, G237A and N297A; only variable domains tied to the clone
# B4: antibody 194 (antibody, V domains shown)
# VH: DVQLVESGGGVVRPGESLRLSCAASGFTFRNYGMSWVRQAPGEGLEWVSASSGSGSTYYADSVKGRFTISRDNSKNTLYLQMNSLRAEDTAIYYCAKVTWNNFFDYWGLGTLVTVSS
# VL: EIVLAQSPDTLSVSPGERATLTCRASQDVAGKLAWYQQKPGQAPRLLIHATSSRADGIPARFSGSGSGTEFTLTITGLQSEDFAVYYCQQHYDWSPLTFGGGTKVEIK
# notes: also called S194
# B5: AB119a (antibody, human IgG1, V domains shown)
# VH: DVQLLESGGGVVQPGGSLRLSCAASGFSFSNFAMTWVRQAPGEGLEWVSTIGSGDTYYADSVKGRFTISRDNSKNTLYLQMNSLRAEDTAVYYCAKDSTVSWSGDFFDYWGLGTLVTVSS
# VL: EIVLTQSPATLSVSPGERATFSCRASQNVKNDLAWYQQRPGQAPRLLIYAARIRETGIPERFSGSGSGTEFTLTITSLQSEDFAVYYCQQYYDWPPFTFGGGTKVEIK
# notes: as for B3
# B6: AB45 (as in Table J1) (antibody, V domains shown)
# VH: AVTLDESGGGLQTPGGALSLVCKASGFTFSSYAMGWVRQAPGKGLEWVAGIDDDGSTANYGPAVKGRATISRDNGQSTVRLQLNNPRAEDSGTYFCAKASVTGWSAHISGRLDTWGHGTEVIVSS
# VL: ALTQPASVSANPGETVKITCSGGGIYYYGWYQQKSPGSAPVTLIYENDKRPSDIPSRFSGSTSGSTNTFTITGVQAEDEAVYYCGGYDSNTTSGIFGAGTTLTVL
# notes: also called antibody 45
# B7: antibody 123 (antibody, V domains shown)
# VH: VQLVESGGGLVQPGGSLRLSCTASGFTFRNYGMSWVRQAPGEGLEWVSASSGSGSTYYTDSVKGRFTISRDNSKNTLYLQMNSLRAEDTAIYYCAKVTWNNFFDYWGLGTLVTVSS
# VL: EIVLTQSPGTLSVSPGERVTLTCRASQGIAGKIAWYQQKPGQAPRLLIYDASSRATGIPGRFSGSGSGTEFTLTITSLQSEDFAVYYCQQHYDWSPLTFGGGTKVEIK
# notes: also called S123
# Legend:
# [1] = target: T1, NOD mouse SIRP-α; assay: SPR
# Method in brief: (§1)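 KD values were derived as kd/ka from apparent rate constants obtained by globally fitting double-referenced data to a simple Langmuir model. The data came from a ProteOn XPR36 biosensor run at 25° C in PBS pH 7.4 with 0.01% Tween-20. There, purified antibodies sat on a GLC chip by amine coupling or on an NLC chip by biotinylated Protein A capture, and SIRP analytes were injected in one-shot kinetic mode at nominal concentrations set from A280 absorbance.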
# [2] = target: T2, BL6 mouse SIRP-α; assay: SPR
# Method in brief: as §1
# [3] = target: T3, BALBc mouse SIRP-α; assay: SPR
# Method in brief: as §1
# [4] = target: T11, human SIRPβ isoform 1 (human, UniProt O00241 30-148); assay: SPR
# T11 construct: also called Beta; Human SIRPb
# Method in brief: as §1
# T11 sequence (O00241 30-148 limits assumed): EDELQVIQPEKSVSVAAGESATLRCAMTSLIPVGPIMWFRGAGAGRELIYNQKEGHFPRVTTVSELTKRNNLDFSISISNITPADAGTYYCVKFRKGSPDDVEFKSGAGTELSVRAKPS
# [5] = target: T4, cynomolgus SIRP-α; assay: SPR
# Method in brief: as §1
# [6] = target: T12, human SIRPγ isoform 1 (human, UniProt Q9P1W8 29-147); assay: SPR
# T12 construct: also called Gamma; Human SIRPg
# Method in brief: as §1
# T12 sequence (Q9P1W8 29-147 limits assumed): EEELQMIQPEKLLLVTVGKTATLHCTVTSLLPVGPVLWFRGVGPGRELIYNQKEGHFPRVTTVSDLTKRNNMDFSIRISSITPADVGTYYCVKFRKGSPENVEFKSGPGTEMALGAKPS
# [7] = target: T13, human SIRP-α v2 (human); assay: SPR
# T13 construct: also called Human v2; Human V2
# Method in brief: as §1
# [8] = target: T14, human SIRP-α v1 (human, UniProt P78324 31-149); assay: SPR
# T14 construct: also called Human v1; Human V1
# Method in brief: as §1
# [9] = target: T5, cynomolgus SIRP-α D1 domain (SEQ ID …); assay: SPR, ProteOn, antibody on chip
# Method: (§2) All experiments were performed at 25° C. using a SPR-based ProteOn XPR36 biosensor (BioRad, Inc, Hercules, Calif.) equipped with GLC or NLC sensor chips. […] Purification was carried out by standard Protein A affinity column chromatography and eluted antibodies were stored in PBS buffer.
# (§3) The running buffer was PBS pH 7.4 with 0.01% Tween-20 (PBST+). All analytes were used at their nominal concentrations as determined by A280 Absorbance and using their molar calculated extinction coefficient.
# (§4) For the method using GLC chip, the analytes were injected and flowed over anti-SIRPα antibodies immobilized (˜1000 RUs) on GLC chips using Proteon™ Amine Coupling Kit. For the immobilization step, GLC chip was activated with EDAC/Sulpho-NHS 1:1 (Biorad) diluted 1/100 for 300 s at 25 μL/min. Anti-SIRPα antibodies were diluted to 80 nM concentration in 10 mM sodium acetate buffer pH 4.5 and immobilized to the chip at 30 μL/min for 50 s. Chip was inactivated with ethanolamine for 300 s at 25 μL/min. The analytes (e.g., SIRP-α from different species, SIRP-β, SIRP-γ) were injected in a “one-shot” kinetic mode at nominal concentrations of 100, 33, 11, 3.7, 1.2 and 0 nM. Association times were monitored for 90 s at 100 μL/min, and dissociation times were monitored for 1200 s. The surfaces were regenerated with a 2:1 v/v blend of Pierce IgG elution buffer/4M NaCl.
# [10] = target: T15, human SIRP-α v1 D1 domain (human, UniProt P78324 31-149); assay: SPR, ProteOn, antibody on chip
# T15 construct: also called human v1; human α v1
# Method: as §2, §3, §4
# [11] = target: T16, human SIRPβ isoform 2 (human, UniProt Q5TFQ8 30-148); assay: SPR, ProteOn, antibody on chip
# T16 construct: also called Sirpb2; beta isoform 2
# Method: as §2, §3, §4
# [12] = target: T17, human SIRPβ isoform 1 (human, UniProt O00241 30-148); assay: SPR, ProteOn, antibody on chip
# T17 construct: also called sirpb1; Sirpb1
# Method: as §2, §3, §4
# T17 sequence (O00241 30-148 limits assumed): as the sequence (O00241 30-148 limits assumed) above
# [13] = target: T18, human SIRP-α v2 D1 domain (human); assay: SPR, ProteOn, antibody on chip
# T18 construct: also called human v2; human α v2
# Method: as §2, §3, §4
# [14] = target: T19, human SIRPγ isoform 1 (human, UniProt Q9P1W8 29-147); assay: SPR, ProteOn, antibody on chip
# T19 construct: also called sirpg; sirp-g
# Method: as §2, §3, §4
# T19 sequence (Q9P1W8 29-147 limits assumed): as the sequence (Q9P1W8 29-147 limits assumed) above
# [15] = target: T11, human SIRPβ isoform 1; assay: SPR Koff +/-
# Method in brief: as §1
# [16] = target: T14, human SIRP-α v1; assay: SPR; remark: listed apart in the source
# Method in brief: as §1
# [17] = target: T13, human SIRP-α v2; assay: SPR KD
# Method in brief: as §1
# [18] = target: T5, cynomolgus SIRP-α D1 domain (SEQ ID …); assay: SPR, antibody immobilised on GLC chip
# [19] = target: T15, human SIRP-α v1 D1 domain; assay: SPR, antibody immobilised on GLC chip
# Target sequence in this assay (P78324 31-149 limits assumed): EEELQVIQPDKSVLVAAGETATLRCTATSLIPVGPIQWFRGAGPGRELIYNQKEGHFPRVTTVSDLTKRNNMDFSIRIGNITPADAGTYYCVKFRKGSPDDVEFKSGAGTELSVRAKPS
# [20] = target: T18, human SIRP-α v2 D1 domain; assay: SPR, antibody immobilised on GLC chip
# [21] = target: T5, cynomolgus SIRP-α D1 domain (SEQ ID …); assay: SPR, Langmuir fit
# [22] = target: T6, cynomolgus SIRP-α D1 domain (SEQ ID …); assay: SPR, Langmuir fit
# [23] = target: T7, BALB/c mouse SIRP-α D1 domain; assay: SPR, Langmuir fit
# [24] = target: T8, NOD mouse SIRP-α D1 domain; assay: SPR, Langmuir fit
# [25] = target: T9, C57BL/6 mouse SIRP-α D1 domain; assay: SPR, Langmuir fit
# [26] = target: T10, mouse 129 SIRP-α; assay: SPR Koff +/-
# Method in brief: as §1
# [27] = target: T4, cynomolgus SIRP-α; assay: SPR Koff +/-
# Method in brief: as §1
# [28] = target: T12, human SIRPγ isoform 1; assay: SPR Koff +/-
# Method in brief: as §1
# T14 sequence (P78324 31-149 limits assumed): as above
# T18 sequence (chain, as listed by the source limits assumed): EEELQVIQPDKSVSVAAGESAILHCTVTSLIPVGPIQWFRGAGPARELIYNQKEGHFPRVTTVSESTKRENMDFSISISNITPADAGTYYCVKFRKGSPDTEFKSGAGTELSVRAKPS
# T13 sequence (chain, as listed by the source limits assumed): as above
# T16 sequence (Q5TFQ8 30-148 limits assumed): as the sequence (P78324 31-149 limits assumed) above, with V13I, L14S, T20S, R24H, A27V, G79S, D101H counted along it
binder,measurement,setting,value
B1,Kd,[1],3.7 nM
same,Kd,[2],9.5 nM
same,Kd,[3],7.91 nM
same,Kd,[4],0.0067 nM
same,Kd,[5],0.0291 nM
same,Kd,[6],< 0.001 nM
same,Kd,[7],0.0046 nM
same,Kd,[8],0.00532 nM
B2,Kd,[1],24.1 nM
same,Kd,[3],136 nM
same,Kd,[4],0.0569 nM
same,Kd,[5],0.222 nM
same,Kd,[6],0.0345 nM
same,Kd,[7],0.119 nM
same,Kd,[8],0.0119 nM
B3,Kd,[9],2.41 nM
same,Kd,[10],0.426 nM
same,Kd,[11],0.164 nM
same,Kd,[12],0.131 nM
same,Kd,[13],1.86 nM
same,Kd,[14],0.519 nM
B4,binding result,[15],no binding
same,Kd,[16],0.497 nM
same,binding result,[17],no binding
B5,Kd,[9],0.145 nM
same,Kd,[10],0.198 nM
same,Kd,[11],0.376 nM
same,Kd,[12],0.342 nM
same,Kd,[13],0.0799 nM
same,Kd,[14],0.886 nM
same,Kd,[18],0.112 nM
same,Kd,[19],0.183 nM
same,Kd,[20],0.0682 nM
B6,binding result,[21],no binding
same,binding result,[22],no binding
same,binding result,[23],no binding
same,binding result,[24],no binding
same,binding result,[25],no binding
B7,binding result,[26],no binding
same,binding result,[15],no binding
same,binding result,[27],binds
same,binding result,[28],binds
same,Kd,[16],0.605 nM
same,binding result,[17],no binding

# — US20210363269A1 (ALX ONCOLOGY, published 2021)
